Target: the molecule itself
Test: cryo-EM structure; α and β mixed 1:1.5 (α:β) with 1 mM dATP and 1 mM CDP on ice in 50 mM HEPES pH 7.6, 15 mM MgCl2, 1 mM EDTA; chameleon 54 ms dispense-to-plunge, 6 mg/mL protein (4.3 Å); also Vitrobot grid, 0.5 mg/mL (5.6 Å); dATP-inactivating conditions

B1: Neisseria gonorrhoeae class Ia ribonucleotide reductase NrdB (β) subunit, hydroxyurea-inactivated (met-β2) (enzyme, UniProt A0ACH0F974 1-377, looked up)
chain: MSYSTFPKTKNDALKEPMFFGQPVNVARYDQQKYEVFEKLIEKQLSFFWRPEEIDVSRDRIDYANLPEHEKHIFISNLKYQTLLDSIQGRSPNVALLPLVSIPELETWVETWSFSETIHSRSYTHIIRNIVNDPSVVFDDIVENEYITARAEDIACYYDDLIEYTQYYNLLGEGVHNVGGKPVTVSLRGLKKKLYLCLMCVNVLEAIRFYVSFACSFAFAERELMEGNAKIIKLIARDEALHLTGTQHMLNLMRSGVDDPEMAEIAAELQDECFQLFKKAAEQEKEWAAYLFKDGSMIGLNKEILSQYVEYITNLRMQAVGLPAGFEGANQNPIPWINAWLSSDNVQVAPQEVEISSYLIGQIDSEVNTDDLGDFEL
notes: N. gonorrhoeae class Ia RNR radical-generating subunit NrdB (β); 377 residues as printed (model holds four residues of the histidine tag, residues 1-346 and 374-376 of 377); expected MW 43253 Da; met-β2: diiron cluster reconstituted (1.8 +/- 0.3 iron per monomer), tyrosyl radical quenched with hydroxyurea; also called NgRNR β; His6-TEV-NgRNR β; source: E. coli T7 Express, pET30a(+), purified …
- binding result: binds
